We go through 19 molecules from patent US11873336 (TENEOBIO, dated 2024).

The target in assay [1] is T1, human CD22 protein (recombinant CD22 extracellular domain) (human, UniProt P20273 20-687).
T1 construct: extracellular domain; also called SIGLEC-2
T1 sequence (looked up): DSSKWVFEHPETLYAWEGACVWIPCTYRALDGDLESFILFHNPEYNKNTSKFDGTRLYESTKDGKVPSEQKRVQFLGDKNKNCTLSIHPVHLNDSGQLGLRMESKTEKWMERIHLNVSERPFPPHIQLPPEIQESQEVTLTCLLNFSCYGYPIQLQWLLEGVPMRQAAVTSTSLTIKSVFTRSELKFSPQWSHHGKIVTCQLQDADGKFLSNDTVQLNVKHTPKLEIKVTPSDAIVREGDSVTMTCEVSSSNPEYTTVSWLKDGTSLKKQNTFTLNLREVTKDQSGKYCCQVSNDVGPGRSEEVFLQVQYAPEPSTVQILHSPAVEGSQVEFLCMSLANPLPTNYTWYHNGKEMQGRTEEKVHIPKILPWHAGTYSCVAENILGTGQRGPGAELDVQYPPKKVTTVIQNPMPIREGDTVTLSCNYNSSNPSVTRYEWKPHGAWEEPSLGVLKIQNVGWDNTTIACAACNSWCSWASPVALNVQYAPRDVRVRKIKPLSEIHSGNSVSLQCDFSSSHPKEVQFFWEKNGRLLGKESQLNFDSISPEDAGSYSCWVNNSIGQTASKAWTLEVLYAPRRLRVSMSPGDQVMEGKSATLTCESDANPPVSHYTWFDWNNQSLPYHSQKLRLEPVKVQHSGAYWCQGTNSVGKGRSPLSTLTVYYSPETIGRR
The experiment in a line: ELISA on recombinant CD22 extracellular domain and/or cell binding. In general terms: ELISA stands for enzyme-linked immunosorbent assay.

Assay [2] addresses T2, human CD22 on CD22-positive Burkitt's lymphoma cells (Daudi, Raji, Ramos) (human, UniProt P20273 20-847).
T2 construct: whole, on cells; also called CD22+ cells; CD22 positive cells
T2 sequence (looked up): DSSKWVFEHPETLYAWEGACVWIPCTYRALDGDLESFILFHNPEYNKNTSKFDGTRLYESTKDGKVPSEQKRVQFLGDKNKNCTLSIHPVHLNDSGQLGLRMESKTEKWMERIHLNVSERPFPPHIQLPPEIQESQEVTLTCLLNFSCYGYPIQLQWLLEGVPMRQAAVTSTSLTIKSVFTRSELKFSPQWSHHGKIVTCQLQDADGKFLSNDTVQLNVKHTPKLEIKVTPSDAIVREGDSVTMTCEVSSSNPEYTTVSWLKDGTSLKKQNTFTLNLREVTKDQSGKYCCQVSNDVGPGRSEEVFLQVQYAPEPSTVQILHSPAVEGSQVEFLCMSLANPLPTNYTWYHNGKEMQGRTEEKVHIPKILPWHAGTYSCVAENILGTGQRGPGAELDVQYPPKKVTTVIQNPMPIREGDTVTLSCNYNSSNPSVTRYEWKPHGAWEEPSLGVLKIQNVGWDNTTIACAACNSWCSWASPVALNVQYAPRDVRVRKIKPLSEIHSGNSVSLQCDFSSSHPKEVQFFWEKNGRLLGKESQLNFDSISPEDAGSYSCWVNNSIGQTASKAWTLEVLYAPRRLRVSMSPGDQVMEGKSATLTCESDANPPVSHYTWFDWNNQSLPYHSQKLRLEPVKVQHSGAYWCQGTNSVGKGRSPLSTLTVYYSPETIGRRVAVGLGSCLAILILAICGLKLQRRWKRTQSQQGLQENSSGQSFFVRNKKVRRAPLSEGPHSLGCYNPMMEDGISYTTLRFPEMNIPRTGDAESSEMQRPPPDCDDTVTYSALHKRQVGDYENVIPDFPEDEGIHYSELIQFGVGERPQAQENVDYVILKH
The experiment in a line: cell binding, Daudi cells. The protocol:
Binding to CD22 positive cells was assessed by flow cytometry (Guava easyCyte 8HT, EMD Millipore) using the Daudi cell line (ATCC). Briefly, 100,000 target cells were stained with a dilution series of purified UniAbs™ for 30 minutes at 4° C. Following incubation, the cells were washed twice with flow cytometry buffer (1×PBS, 1% BSA, 0.1% NaN_3) and stained with goat F(ab')2 anti-human IgG conjugated to R-phycoerythrin (PE) (Southern Biotech, cat. #2042-09) to detect cell-bound antibodies. After a 20-minute incubation at 4° C., the cells were washed twice with flow cytometry buffer and then mean fluorescence intensity (MFI) was measured by flow cytometry. EC50 values were calculated using GraphPad Prism 7. Binding to *cynomolgus* CD22 positive cells was determined using the same protocol with the following modifications: the target cells were from CHO cells stably transfected to express the extracellular domain of *cynomolgus* CD22 and each antibody was tested at a single concentration (~1.7 µg/mL) so EC50 values were not calculated.

B1: anti-CD22 heavy chain-only antibody with the VH of SEQ ID NO: 43 (antibody, V domains shown)
VH: QLQLQESGPGLVKPSETLSLTCTVSGGSISSGDYYWGWIRQPPGKGLEWIGHIYYSGATYYNPSLKNRVTISVDTSRNQFSLKLSSVTAADTAVYYCTRDDSSNWRSRGQGTLVTVSS
notes: Heavy chain-only antibody (UniAb), human IgG
B1: the binding result in assay [1] and in assay [2] was “binds” throughout.

B2: anti-CD22 heavy chain-only antibody with the VH of SEQ ID NO: 51 (antibody, V domains shown)
VH: QLQLQESGPGLVKPSETLSLTCTVSGGSISSSSYYWGWIRQPPGKGLEWIGSIYYSGSTYYNPSLKSRVTISVDTSKNQFSLKLSSVTAADTAVYYCTRDDSSNWRSRGQGTLVTVSS
notes: as for B1
On to B2, for which the binding result in assay [1] and in assay [2] was “binds” in each case.

B3: anti-CD22 heavy chain-only antibody with the VH of SEQ ID NO: 59 (antibody, V domains shown)
VH: QLQLQESGPGLVKPSETLSLTCTVSGDSISSSSYYWGWIRQPPGKGLEWIGSIYYSGSTYYNPSLKSRVTISVDTSKNQFSLKLSSVTAADTAVYYCTREDSSNWRSRGQGTLVTVSS
notes: as for B1
As to B3, the binding result in assay [1] and in assay [2] was “binds” in each case.

B4: anti-CD22 heavy chain-only antibody with the VH of SEQ ID NO: 47 (antibody, V domains shown)
VH: QLQLQESGPGLVKPSETLSLTCTVSGDSISSGGYYWGWIRQPPGKGLEWIGSIYYSGSTYYNPSLKNRVTISVDTSKNQFSLKLSSVTAADTAVYYCTREDSSSWRSRGQGTLVTVSS
notes: as for B1
Take B4: the binding result in assay [1] and in assay [2] was “binds” each time.

B5: anti-CD22 heavy chain-only antibody with the VH of SEQ ID NO: 53 (antibody, V domains shown)
VH: QLQLQESGPGLVKPSETLSLTCTVSGDSISSGDYYWGWIRQPPGKGLEWIGSIYYTGSTYYNPSLKSRVTISVDTSKNQFSLKLSSVTAADTAVYYCTREDSSNWRSRGQGTLVTVSS
notes: as for B1
For the molecule B5, the binding result in assay [1] and in assay [2] was “binds” each time.

B6: anti-CD22 heavy chain-only antibody with the VH of SEQ ID NO: 54 (antibody, V domains shown)
VH: QLQLQESGPGLVKPSETLSLTCTVSGGSISSGDYYWGWIRQPPGKGLEWIGHIYYSGATYYNPSLKNRVTISVDTSRNQFSLKLSSVTAADTAVYYCTREDSSNWRSRGQGTLVTVSS
notes: as for B1
With B6, the binding result in assay [1] and in assay [2] was “binds” each time.

B7: anti-CD22 heavy chain-only antibody with the VH of SEQ ID NO: 56 (antibody, V domains shown)
VH: QLQLQESGPGLVKPSETLSLTCTVSGGSISSSSYYWGWIRQPPGKGLEWIGHIYYSGVTYYNPSLKNRVTISVDTSKNQFSLKLSSVTAADTAAYYCTRDDSSNWRSRGQGTLVTVSS
notes: as for B1
Turning to B7, the binding result in assay [1] and in assay [2] was “binds” in each case.

B8: anti-CD22 heavy chain-only antibody with the VH of SEQ ID NO: 50 (antibody, V domains shown)
VH: QLQLQESGPGLVKPSETLSLTCTVSGDSISSGDYYWGWIRQPPGKGLEWIGNIYYSGATYYNPSLKNRVTISVDTSKNQFSLKLSSVTAADTAVYYCTRDDSSNWRSRGQGTLVTVSS
notes: as for B1
For B8, the binding result in assay [1] and in assay [2] was “binds” throughout.

B9: anti-CD22 heavy chain-only antibody with the VH of SEQ ID NO: 52 (antibody, V domains shown)
VH: QLQLQESGPGLVKPSETLSLTCTVSGDSISSGDYYWGWIRQPPGKGLEWIGSIYYSGSTYYNPSLKSRVTISVDTSKNQFSLKLSSVTAADTAVYYCTREDSSNWRSRGQGTLVTVSS
notes: as for B1
For B9, the binding result in assay [1] and in assay [2] was “binds” throughout.

B10: anti-CD22 heavy chain-only antibody with the VH of SEQ ID NO: 61 (antibody, V domains shown)
VH: QLQLQESGPGLVKPSETLSLTCTVSGGSISSSSYYWGWIRQPPGKGLEWIGSIYYSGATYYNPSLKNRVTISVDTSKNQFSLKLSSVTAADTAVYYCTREDSSSWRSRGQGTLVTVSS
notes: as for B1
With B10, the binding result in assay [1] and in assay [2] was “binds” throughout.

B11: anti-CD22 heavy chain-only antibody with the VH of SEQ ID NO: 45 (antibody, V domains shown)
VH: QLQLQESGPGLVKPSETLSLTCTVSGDSISSGDYYWGWIRQPPGKGLEWIGSIYYSGSTYYNPSLKSRVTISVDTSKNQFSLKLSSVTAADTAVYYCTREDSSSWRSRGQGTLVTVSS
notes: as for B1
For B11, the binding result in assay [1] and in assay [2] was “binds” in each case.

B12: anti-CD22 heavy chain-only antibody with the VH of SEQ ID NO: 49 (antibody, V domains shown)
VH: QLQLQESGPGLVKPSETLSLTCTVSGDSISSGDYYWGWIRQPPGKGLEWIGNIYYSGATYYNPSLKNRVTISVDTSKNQFSLKLSSVTAADTAVYYCTREDSSNWRSRGQGTLVTVSS
notes: as for B1
On to B12, for which the binding result in assay [1] and in assay [2] was “binds” each time.

B13: anti-CD22 heavy chain-only antibody with the VH of SEQ ID NO: 62 (antibody, V domains shown)
VH: QLQLQESGPGLVKPSETLSLTCTVSGGSISSSSYYWGWIRQPPGKGLEWIGHIYYSGATYYNPSLKNRVTISVDTSRNQFSLNLSSVTAADTAVYYCTREDSSSWRSRGQGTLVTVSS
notes: as for B1
As for B13, the binding result in assay [1] and in assay [2] was “binds” throughout.

B14: anti-CD22 heavy chain-only antibody with the VH of SEQ ID NO: 46 (antibody, V domains shown)
VH: QLQLQESGPGLVKPSETLSLTCTVSGDSISSGDYYWGWIRQPPGKGLEWIGNIYYSGATYYNPSLKNRVTISVDTSKNQFSLKLSSVTAADTAVYYCTREDSSSWRSRGQGTLVTVSS
notes: as for B1
As to B14, the binding result in assay [1] and in assay [2] was “binds” throughout.

B15: anti-CD22 heavy chain-only antibody with the VH of SEQ ID NO: 44 (antibody, V domains shown)
VH: QLQLQESGPGLVKPSETLSLTCTVSGGSISSGDYYWGWIRQPPGKGLEWIGHIYYSGATYYNPSLENRVTISVDTSKNQFSLKLSSVTAADTAVYYCTRDDSSNWRSRGQGTLVTVSS
notes: as for B1
B15: the binding result in assay [1] and in assay [2] was “binds” throughout.

B16: anti-CD22 heavy chain-only antibody with the VH of SEQ ID NO: 60 (antibody, V domains shown)
VH: QLQLQESGPGLVKPSETLSLTCTVSGGSISSSSYYWGWIRQPPGKGLEWIGSIYYSGSTYYNPSLKSRVTISVDTSKNQFSLKLSSVTAADTAVYYCAREDSSSWRSRGQGTLVTVSS
notes: as for B1
Take B16: the binding result in assay [1] and in assay [2] was “binds” throughout.

B17: anti-CD22 heavy chain-only antibody with the VH of SEQ ID NO: 48 (antibody, V domains shown)
VH: QLQLQESGPGLVKPSETLSLTCTVSGDSISSGDYYWGWIRHPPGKGLEWIGHIYYSGATYYNPSLKNRVTISVDTSKNQFSLKLSSVTAADTAVYYCTREDSSSWRSRGQGTLVTVSS
notes: as for B1
As to B17, the binding result in assay [1] and in assay [2] was “binds” each time.

B18: anti-CD22 heavy chain-only antibody with the VH of SEQ ID NO: 57 (antibody, V domains shown)
VH: QLQLQESGPGLVKPSETLSLTCTVSGGSISSSSYYWGWIRQPPGKGLEWIGHIYYSGVTYYNPSLKNRVTISVDTSKNQFSLKLSSVTAADTAVYYCTRDDSSNWRSRGQGTLVTVSS
notes: as for B1
For B18, the binding result in assay [1] and in assay [2] was “binds” in each case.

B19: anti-CD22 heavy chain-only antibody with the VH of SEQ ID NO: 58 (antibody, V domains shown)
VH: QLQLQESGPGLVKPSETLSLTCTVSGGSISSSSYYWGWIRQPPGKGLEWIGSIYYSGSTYYNPSLKSRVTISVDTSRNQFSLNLSSVTAADTAVYYCTREDSSSWRSRGQGTLVTVSS
notes: as for B1
As to B19, the binding result in assay [1] and in assay [2] was “binds” in each case.
